The supplement of paper PMC9170038

system: MS2 coat protein; test: apparent KD of MS2 coat protein, switch ON state; designed switch direction (-1 OFF switch, 1 ON switch): -1; higher = weaker reporter binding; details: FMN input: 0 or 200 uM; Eterna round: R93 (includes R88 designs)
Summary of the method: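 Apparent KD was obtained for each design as the median of normalised binding-curve fits over its clusters. RNA switches transcribed on-chip from Illumina sequencing clusters were titrated with SNAP-549-labelled MS2 coat protein (twofold steps, 0.7 or 1.5 nM to 3 µM) in 100 mM Tris-HCl pH 7.5, 80 mM KCl, 4 mM MgCl2, without or with constant ligand.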

Sequence	apparent KD of MS2 coat protein
AAAAGGAUAGGAUAUACAUGAGGAUCACCCAUGUGAAAAAAUAAAAAAAAAAAAAAAAGUAGAAGGGUCAAAAA [LROPPY Exclusion 3 - v05_deltaG=3.6]	40.2 nM
GUGUACAGAGGAUAUACAUGAGCAUGGAAACAUGCAAGAUCACAUGAGGAUCACCCAUGUAGAAGGCUGUACAC [Ex2: 733]	50.3 nM
CUCAUGUCAGGAUAUCAGUAGUAAAAAAAAAAAAUUACUACUGAGAAGGGACAUGAGGAUCACCCAUGUCCCAA [EX4 305: Super Stable 5]	30.7 nM
AAGAAGGUAGGAUAUACAAAAUAAAAGAAAAGAAAGAAAGAACAUGAGGAUCACCCAUGUAGAAGGACCAAGAA [Khutawyre Wegaf]	34.3 nM
AAAAAGUGAGGAUAUAGCAAAGGUCACGAAAGUGACAAAGGCUAGAAGGCACAUGAGGAUCACCCAUGUCCAAA [Fiskers Exclusion 4 D2 63% 2]	24.7 nM
AGGGAGUGAGGAUAUGCGAAAGAAAAAGAAAAAAAAAAAAAGCAGAAGGUACAUGAGGAUCACCCAUGUAAAAA [milkweed 6]	29.8 nM
AAUAGUGAAGGAUAUACAGGAGAAGUACGAUAAAAGAAAGAACAUGAGGAUCACCCAUGUAGAAGGUCAGAAGU [JR_Exc002_Sub1228]	33.6 nM
AAAAAUGGAGGAUAUACGAACAUGUCAAAAGACGUGAAGGGACAUGAGGAUCACCCAUGUAGAAGGCUAAAAAA [JL Stem Breaker 3]	87.1 nM
AAAAUGUGAGGAUAUCCGAAGGCGUCUGAUAGACGAGGCUAGGAGAAGGCACAUGAGGAUCACCCAUGUAAAAA [Banishment 11 - Jieux - Exclusion 4]	78.8 nM
AAAGGUACAGGAUAUGCGUGGAAAAAGUGUAUUCAAAAAAAACAUGAGGAUCACCCAUGUAGAAGGGUACCAAA [MS2 Riboswitches On Chip Exclusion 2 wbt1]	69.7 nM
AACAAGUCAGGAUAUGCGAACAGAAAAUAAGCUACACAAAAGCAGAAGGGACAUGAGGAUCACCCAUGUAAAUA [JR_Exc004_Sub501]	49.9 nM
AAGAAAGAAGGAUAUACAAGGAAGAAAGAAAAGAAAAGAAAACAUGAGGAUCACCCAUGUAGAAGGUCUUAGAA [EteRNA is fun!]	19.5 nM
GAAAAUUGAGGAUAUACGAACAUGUCAAAAGACGUGAAGGGACAUGAGGAUCACCCAUGUAGAAGGCGAAAAAG [Mat - Exclusion 2 - JL mod - D93]	32 nM
CUCUUGUGAGGAUAUAGAAGAAAAGAAAAGAAAGAAAAGAACUAGAAGGCACAUGAGGAUCACCCAUGUAAGAA [EteRNA is fun!]	38.7 nM
AAAAAACAUGAGGAUCACCCAUGUGAGGAUAUCCUGGUUGAAAAAAAAAAAACAACCAGGAGAAGGCACAAAAA [EXCL-I]	45.2 nM
AAAAAGUCAGGAUAUUCGGAAGGGAAAGCGCAAACCCAACCGAAGAAGGGACAUGAGGAUCACCCAUGUGGAAA [Ecls4-III 65% - Late G segment 1]	79 nM
AAAAAACAUGAGGAUCACCCAUGUAAGGAUAUGCUGAAAAACACUGGAAAACAGUGCAGCAGAAGGUACAAAAA [66%, Wbt, 34]	21.1 nM

Sequence	apparent KD of MS2 coat protein
GAUAGUGAAGGAUAUACUGGAGGAGUGCGAUAGAAGCAAGAACAUGAGGAUCACCCAUGUAGAAGGUCAGAAGU [JR_Exc002_Sub1224]	25.5 nM
AAAAAGGUAGGAUAUACAUGAGGAUCACCCAUGUGAAAGAAAAAUAAGAAAAGAAAGAGUAGAAGGACCAAAAA [JL JSci Mod]	31 nM
AGCUAGCGAGGAUAUGCGAACAUGUCAAAAGACGUGAAGGGACAUGAGGAUCACCCAUGUAGAAGGCGCUAGCA [JL 74% mod 4]	24.7 nM
AGCAGUACAGGAUAUACAUGAGGAUCACCCAUGUGAAAAUAAAGUGGCGUACCACAAAGUAGAAGGGUACUGCA [Mat - Exclusion 3 - JL mod - D31]	34.2 nM
AUAGGCCUAGGAUAUACAUGAGGAUCACCCAUGUAAACCGAUAGAUCACGGUAAACGAGUAGAAGGAGGAAUAA [JR_Exc003_Sub208]	26.5 nM
AAGGGACAUGAGGAUCACCCAUGUGAGGAUAUGAUGCGAAUAAAGAAAGAAUAAAGCAUCAGAAGGCACACCAA [Mat - Exclusion 1 - Eli mod - D66]	77.2 nM
AAAAAACAUGAGGAUCACCCAUGUAAGGAUAUGCUCGAAAGUGCGAAAGCACAAACGAGCAGAAGGUACAAAAA [66%, Wbt, 45]	34.7 nM
AAAAAACAUGAGGAUCACCCAUGUCAGGAUAUCGAAAAAUAAAUAAAAAUAAAAUAAACGAGAAGGGACAAAAA [May 11]	39.8 nM
AAGAAGGUAGGAUAUACAAAAUAAAAGAAAAGAAAGAAAGAACAUGAGGAUCACCCAUGUAGAAGGGCCAAGAA [Khendjer]	84.2 nM
GGGUAACAUGAGGAUCACCCAUGUGAGGAUAUCCUAGGGAUGGAAGCCAGGCCAAAAAGGAGAAGGUACUAAAG [Janelle Amethyst 18 Mod 17 - Jieux - Exclusion 1]	54.2 nM
AGCUAGUCAGGAUAUACAUAAAAAAAAAAAAAAAGUGAUAAACAUGAGGAUCACCCAUGUAGAAGGGACUAGCA [Similarities v.4.2 (34 mutated to A)]	29 nM
AAGAAACAUGAGGAUCACCCAUGUGAGGAUAUGGAAAAGAAAAGAAAAGAAAGAAGAAUCAGAAGGCACAAAGG [Meryhathor]	46.4 nM
AGUGAGUGAGGAUAUCCCUGAAGAAUAAAAGAAAUAACGAGGGAGAAGGCACAUGAGGAUCACCCAUGUACACA [May 64]	30.6 nM
AAGUUAUUAGGAUAUACUUGUGCGAUCCAUACGUUGAUAUUACAUGAGGAUCACCCAUGUAGAAGGAAUAAAAA [JR_Exc002_Sub414]	48.2 nM
GGUUGGCGAGGAUAUACAUGAGGAUCACCCAUGUGAGAGAAAAAAGUGAGGAGGAGAAGUAGAAGGCGCUGACG [salish99-ex3-17]	18.9 nM
AGGAAACAUGAGGAUCACCCAUGUUAGGAUAUGAACGAAAUAAAAUAAAAAUAAAAGUUCAGAAGGAACAAAAA [Mat - Exclusion 1 - Eli mod - D19]	28.2 nM
AAAAAGUCAGGAUAUGCGAAGGCGUCUGAUAGACGAGGCUAGCAGAAGGGACAUGAGGAUCACCCAUGUGAAGA [Mat - Exclusion 4 - Eli mod - D84]	49.8 nM
